Measurements published in the supplement of paper PMC9112550, “Optimization of the antimicrobial peptide Bac7 by deep mutational scanning” (BMC Biology, 2022).

Test system: Escherichia coli TOP10
Test: shrunken log2 fold change of peptide-encoding DNA abundance (4.5 h post-induction vs induction); higher = less antimicrobial activity (less host growth inhibition)
Settings: time post-induction: 4.5 h; library: site-saturation at positions 5, 18, 19, 20
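Note: peptides expressed intracellularly from a pBAD plasmid library in pooled LB shake-flask culture, induced with 0.3% L-arabinose, DNA abundance read by NGS, three biological replicates, DESeq2 with apeglm shrinkage.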

Row | Sequence | shrunken log2 fold change
1 | RRIRERPPRLPRPRPRPHCMPRP | -0.235
2 | RRIRERPPRLPRPRPRPHEEPRP | 0.13
3 | RRIRERPPRLPRPRPRPHFHPRP | -0.597
4 | RRIRERPPRLPRPRPRPHGDPRP | -0.0135
5 | RRIRERPPRLPRPRPRPHHCPRP | -0.0231
6 | RRIRERPPRLPRPRPRPHHEPRP | -0.191
7 | RRIRERPPRLPRPRPRPHHRPRP | -0.145
8 | RRIRERPPRLPRPRPRPHLQPRP | -0.206
9 | RRIRERPPRLPRPRPRPHPAPRP | 0.039
10 | RRIRERPPRLPRPRPRPHPIPRP | -0.0808
11 | RRIRERPPRLPRPRPRPHQCPRP | -0.262
12 | RRIRERPPRLPRPRPRPHRDPRP | -0.063
13 | RRIRERPPRLPRPRPRPHTWPRP | -0.33
14 | RRIRERPPRLPRPRPRPHVMPRP | -0.957
15 | RRIRERPPRLPRPRPRPHYCPRP | -0.0425
16 | RRIRERPPRLPRPRPRPHYIPRP | -0.133
17 | RRIRERPPRLPRPRPRPIAGPRP | 0.0426
18 | RRIRERPPRLPRPRPRPIDEPRP | 0.0844
19 | RRIRERPPRLPRPRPRPIEIPRP | -0.186
20 | RRIRERPPRLPRPRPRPIEMPRP | -0.0653
21 | RRIRERPPRLPRPRPRPIEVPRP | -0.00196
22 | RRIRERPPRLPRPRPRPIFPPRP | -0.367
23 | RRIRERPPRLPRPRPRPIFSPRP | 0.0654
24 | RRIRERPPRLPRPRPRPIHEPRP | 0.0218
25 | RRIRERPPRLPRPRPRPIHSPRP | -1.52

Row | Sequence | shrunken log2 fold change
26 | RRIRERPPRLPRPRPRPIHVPRP | -0.274
27 | RRIRERPPRLPRPRPRPILDPRP | -0.209
28 | RRIRERPPRLPRPRPRPILKPRP | -0.401
29 | RRIRERPPRLPRPRPRPIPEPRP | -0.882
30 | RRIRERPPRLPRPRPRPIPFPRP | -0.0238
31 | RRIRERPPRLPRPRPRPIQMPRP | -0.14
32 | RRIRERPPRLPRPRPRPIRNPRP | -0.343
33 | RRIRERPPRLPRPRPRPIRVPRP | -0.679
34 | RRIRERPPRLPRPRPRPISAPRP | -0.214
35 | RRIRERPPRLPRPRPRPISTPRP | -0.346
36 | RRIRERPPRLPRPRPRPISYPRP | -0.0746
37 | RRIRERPPRLPRPRPRPITAPRP | -0.573
38 | RRIRERPPRLPRPRPRPITEPRP | -0.159
39 | RRIRERPPRLPRPRPRPITNPRP | -0.409
40 | RRIRERPPRLPRPRPRPIVAPRP | 0.33
41 | RRIRERPPRLPRPRPRPIWEPRP | 0.0512
42 | RRIRERPPRLPRPRPRPIWFPRP | 0.0591
43 | RRIRERPPRLPRPRPRPIWNPRP | -0.0842
44 | RRIRERPPRLPRPRPRPIYDPRP | -0.137
45 | RRIRERPPRLPRPRPRPKCAPRP | 0.0581
46 | RRIRERPPRLPRPRPRPKCHPRP | -0.428
47 | RRIRERPPRLPRPRPRPKCIPRP | -0.464
48 | RRIRERPPRLPRPRPRPKCMPRP | -0.0455
49 | RRIRERPPRLPRPRPRPKCVPRP | 0.0364
50 | RRIRERPPRLPRPRPRPKDHPRP | -0.323

Row | Sequence | shrunken log2 fold change
51 | RRIRERPPRLPRPRPRPKDMPRP | 0.00303
52 | RRIRERPPRLPRPRPRPKDPPRP | 0.0145
53 | RRIRERPPRLPRPRPRPKFHPRP | -0.554
54 | RRIRERPPRLPRPRPRPKGIPRP | -0.000842
55 | RRIRERPPRLPRPRPRPKGQPRP | 0.132
56 | RRIRERPPRLPRPRPRPKGSPRP | 0.00854
57 | RRIRERPPRLPRPRPRPKHCPRP | 0.0411
58 | RRIRERPPRLPRPRPRPKIEPRP | -0.151
59 | RRIRERPPRLPRPRPRPKIPPRP | -0.136
60 | RRIRERPPRLPRPRPRPKISPRP | 0.000121
61 | RRIRERPPRLPRPRPRPKKFPRP | -0.524
62 | RRIRERPPRLPRPRPRPKLDPRP | -0.052
63 | RRIRERPPRLPRPRPRPKMAPRP | 2.39
64 | RRIRERPPRLPRPRPRPKQPPRP | 0.236
65 | RRIRERPPRLPRPRPRPKQWPRP | 0.0081
66 | RRIRERPPRLPRPRPRPKRNPRP | -0.114
67 | RRIRERPPRLPRPRPRPKRQPRP | -0.0958
68 | RRIRERPPRLPRPRPRPKTGPRP | -0.0863
69 | RRIRERPPRLPRPRPRPKVAPRP | 0.0804
70 | RRIRERPPRLPRPRPRPKVIPRP | -0.0206
71 | RRIRERPPRLPRPRPRPKVWPRP | 0.332
72 | RRIRERPPRLPRPRPRPKWFPRP | -0.0144
73 | RRIRERPPRLPRPRPRPKWNPRP | -0.447
74 | RRIRERPPRLPRPRPRPLAEPRP | 0.17
75 | RRIRERPPRLPRPRPRPLAKPRP | 0.0848

Row | Sequence | shrunken log2 fold change
76 | RRIRERPPRLPRPRPRPLAYPRP | -0.203
77 | RRIRERPPRLPRPRPRPLCIPRP | -0.895
78 | RRIRERPPRLPRPRPRPLCNPRP | -0.342
79 | RRIRERPPRLPRPRPRPLCYPRP | -0.824
80 | RRIRERPPRLPRPRPRPLDRPRP | 0.0551
81 | RRIRERPPRLPRPRPRPLETPRP | -0.0311
82 | RRIRERPPRLPRPRPRPLFLPRP | -0.306
83 | RRIRERPPRLPRPRPRPLHLPRP | -0.0385
84 | RRIRERPPRLPRPRPRPLIQPRP | -0.28
85 | RRIRERPPRLPRPRPRPLLVPRP | -0.441
86 | RRIRERPPRLPRPRPRPLMRPRP | 0.839
87 | RRIRERPPRLPRPRPRPLMVPRP | -0.498
88 | RRIRERPPRLPRPRPRPLMWPRP | -0.101
89 | RRIRERPPRLPRPRPRPLPEPRP | 0.0716
90 | RRIRERPPRLPRPRPRPLQGPRP | -0.179
91 | RRIRERPPRLPRPRPRPLREPRP | 0.385
92 | RRIRERPPRLPRPRPRPLVHPRP | -0.158
93 | RRIRERPPRLPRPRPRPLVPPRP | -0.182
94 | RRIRERPPRLPRPRPRPLWEPRP | -0.281
95 | RRIRERPPRLPRPRPRPLWHPRP | -0.0827
96 | RRIRERPPRLPRPRPRPLWWPRP | 0.0601
97 | RRIRERPPRLPRPRPRPLWYPRP | -0.287
98 | RRIRERPPRLPRPRPRPMCNPRP | -0.0237
99 | RRIRERPPRLPRPRPRPMCPPRP | -0.0308
100 | RRIRERPPRLPRPRPRPMDTPRP | -0.501

Row | Sequence | shrunken log2 fold change
101 | RRIRERPPRLPRPRPRPMFPPRP | -0.475
102 | RRIRERPPRLPRPRPRPMGCPRP | 0.111
103 | RRIRERPPRLPRPRPRPMHMPRP | -0.000687
104 | RRIRERPPRLPRPRPRPMHQPRP | -0.452
105 | RRIRERPPRLPRPRPRPMKCPRP | 0.00911
106 | RRIRERPPRLPRPRPRPMKWPRP | -0.0404
107 | RRIRERPPRLPRPRPRPMMEPRP | -0.0582
108 | RRIRERPPRLPRPRPRPMMKPRP | -0.282
109 | RRIRERPPRLPRPRPRPMMNPRP | -0.122
110 | RRIRERPPRLPRPRPRPMMQPRP | -0.0983
111 | RRIRERPPRLPRPRPRPMNNPRP | -0.637
112 | RRIRERPPRLPRPRPRPMPWPRP | 0.0819
113 | RRIRERPPRLPRPRPRPMQHPRP | -0.04
114 | RRIRERPPRLPRPRPRPMRDPRP | 0.365
115 | RRIRERPPRLPRPRPRPMREPRP | 0.992
116 | RRIRERPPRLPRPRPRPMRQPRP | 0.575
117 | RRIRERPPRLPRPRPRPMSFPRP | -0.314
118 | RRIRERPPRLPRPRPRPMSTPRP | -0.516
119 | RRIRERPPRLPRPRPRPMSWPRP | 0.13
120 | RRIRERPPRLPRPRPRPMTCPRP | -0.00926
121 | RRIRERPPRLPRPRPRPMTPPRP | -0.0365
122 | RRIRERPPRLPRPRPRPMVYPRP | -0.119
123 | RRIRERPPRLPRPRPRPMWPPRP | 0.186
124 | RRIRERPPRLPRPRPRPMYGPRP | -0.739
125 | RRIRERPPRLPRPRPRPMYPPRP | -0.0412

Row | Sequence | shrunken log2 fold change
126 | RRIRERPPRLPRPRPRPMYVPRP | -0.0843
127 | RRIRERPPRLPRPRPRPNAQPRP | 0.138
128 | RRIRERPPRLPRPRPRPNCDPRP | -0.261
129 | RRIRERPPRLPRPRPRPNDSPRP | -0.0224
130 | RRIRERPPRLPRPRPRPNEEPRP | 0.00699
131 | RRIRERPPRLPRPRPRPNGCPRP | 0.00429
132 | RRIRERPPRLPRPRPRPNIGPRP | -0.00187
133 | RRIRERPPRLPRPRPRPNIIPRP | -0.338
134 | RRIRERPPRLPRPRPRPNITPRP | -0.738
135 | RRIRERPPRLPRPRPRPNKYPRP | 0.202
136 | RRIRERPPRLPRPRPRPNLLPRP | 0.107
137 | RRIRERPPRLPRPRPRPNLNPRP | -0.58
138 | RRIRERPPRLPRPRPRPNMCPRP | -0.369
139 | RRIRERPPRLPRPRPRPNMQPRP | -0.664
140 | RRIRERPPRLPRPRPRPNMVPRP | -0.61
141 | RRIRERPPRLPRPRPRPNNMPRP | -0.713
142 | RRIRERPPRLPRPRPRPNNSPRP | -0.693
143 | RRIRERPPRLPRPRPRPNQDPRP | 0.169
144 | RRIRERPPRLPRPRPRPNRYPRP | -0.0565
145 | RRIRERPPRLPRPRPRPNSHPRP | -0.8
146 | RRIRERPPRLPRPRPRPNSNPRP | -0.828
147 | RRIRERPPRLPRPRPRPNTLPRP | -0.556
148 | RRIRERPPRLPRPRPRPNTMPRP | -0.122
149 | RRIRERPPRLPRPRPRPNVEPRP | 0.0609
150 | RRIRERPPRLPRPRPRPNWNPRP | -0.236
